# Test results published in PMC5014550, “Mitochondrial Bol1 and Bol3 function as assembly factors for specific iron-sulfur proteins” (eLife, 2016).
# T1: human NFU1 (residues 57-254) with N-terminal His-tag (human, UniProt Q9UMS0 57-254)
# T1 chain: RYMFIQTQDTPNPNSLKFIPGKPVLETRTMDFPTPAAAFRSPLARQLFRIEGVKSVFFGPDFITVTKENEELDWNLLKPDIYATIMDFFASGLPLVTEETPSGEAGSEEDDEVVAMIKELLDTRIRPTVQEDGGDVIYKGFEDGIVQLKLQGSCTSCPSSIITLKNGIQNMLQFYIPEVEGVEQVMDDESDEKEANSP
# T2: human NFU1 (residues 57-254) with N-terminal His-tag (human, UniProt Q9UMS0 57-254)
# T2 construct: Used as apo form or chemically reconstituted holo form carrying a [4Fe-4S] cluster; the assay's format says which; also called apo-NFU1; holo-NFU1; source: E. coli BL21 (DE3), pET-Duet1, purified (HisTrap HP, Superdex 200 gel filtration)
# T2 sequence (looked up): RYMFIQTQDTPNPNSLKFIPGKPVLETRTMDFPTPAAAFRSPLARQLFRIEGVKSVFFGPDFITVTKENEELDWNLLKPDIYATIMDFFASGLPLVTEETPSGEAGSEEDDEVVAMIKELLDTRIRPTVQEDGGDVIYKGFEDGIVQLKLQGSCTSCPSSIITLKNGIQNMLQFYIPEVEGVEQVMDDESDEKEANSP
# T3: human GLRX5, protein used for NMR (human, UniProt Q86SX6 32-157)
# T3 construct: human mitochondrial monothiol glutaredoxin GLRX5; Used as apo form with 5 mM GSH, or chemically reconstituted with a [2Fe-2S] cluster; the assay's format says which; also called apo-GLRX5; holo-GLRX5; source: produced as previously reported (Banci et al., 2014)
# T3 sequence (looked up): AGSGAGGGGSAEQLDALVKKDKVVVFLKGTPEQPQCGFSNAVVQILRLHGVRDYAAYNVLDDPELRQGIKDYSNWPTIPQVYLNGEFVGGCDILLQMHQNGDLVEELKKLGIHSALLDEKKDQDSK
# B1: human GLRX5 (residues 32-157) with N-terminal His-tag (natural protein, UniProt Q86SX6 32-157, looked up)
# chain: AGSGAGGGGSAEQLDALVKKDKVVVFLKGTPEQPQCGFSNAVVQILRLHGVRDYAAYNVLDDPELRQGIKDYSNWPTIPQVYLNGEFVGGCDILLQMHQNGDLVEELKKLGIHSALLDEKKDQDSK
# notes: Chemically reconstituted with a [2Fe-2S] cluster (holo form, >85% holo); holo-GLRX5 alone eluted as a homodimer; also called holo-GLRX5; source: E. coli BL21 (DE3), pET-Duet1, purified (HisTrap HP, Superdex 200 gel filtration)
# What was measured:
# [1] = target: T1, human NFU1 (residues 57-254) with …; assay: MST; holo-NFU1, anaerobic
# [2] = target: T2, human NFU1 (residues 57-254) with …; assay: MST; 200 nM NT-647-labeled BOLA1 or BOLA3, titrated with unlabeled apo-NFU1 (200 µM to 6.1 nM); buffer T (50 mM KPi pH 7.4, 150 mM NaCl, 5% glycerol, 0.05 mg/ml BSA, 0.05% Tween20), 21°C, anaerobic; settings: both partners purified
# [3] = target: T1, human NFU1 (residues 57-254) with …; assay: MST; apo-NFU1, anaerobic
# [4] = target: B1; assay: SEC; gel filtration in buffer R of holo-GLRX5 alone, co-reconstituted equimolar GLRX5-BOLA1 and holo-GLRX5-BOLA3, recorded at 420 nm and 280 nm; fractions analysed by Coomassie and immunostaining; settings: both partners purified
# [5] = target: T2, human NFU1 (residues 57-254) with …; assay: MST; 200 nM NT-647-labeled BOLA1 or BOLA3, titrated with unlabeled chemically reconstituted holo-NFU1 carrying a [4Fe-4S] cluster (200 µM to 6.1 nM); buffer T, 21°C, anaerobic; settings: both partners purified
# [6] = target: T3, human GLRX5, protein used for NMR; assay: NMR titration; 1H-15N HSQC; 15N-labeled BOLA1 or BOLA3 titrated with unlabeled apo-GLRX5 and vice versa; 15N R1 and R2 relaxation on the final mixtures; degassed buffer N (50 mM phosphate pH 7, 5 mM GSH, 5 mM DTT), 10% D2O, 298 K; settings: both partners purified
# [7] = target: the molecule itself; assay: SEC; gel filtration in buffer R of holo-GLRX5 alone, co-reconstituted equimolar GLRX5-BOLA1 and holo-GLRX5-BOLA3, recorded at 420 nm and 280 nm; fractions analysed by Coomassie and immunostaining
Binder,Kd [2],Kd [3],stoichiometry N [6],further results
"human BOLA1 (residues 30-137) with N-terminal His-tag (natural protein, UniProt Q9Y3E2 30-137, looked up, Labelled with NT-647 dye in MST; source: E. coli BL21 (DE3), pET-Duet1, purified (HisTrap HP, Superdex 200 gel filtration)) GPVEAAIRTKLEEALSPEVLELRNESGGHAVPPGSETHFRVAVVSSRFEGLSPLQRHRLVHAALAEELGGPVHALAIQARTPAQWRENSQLDTSPPCLGGNKKTLGTP",~3 µM,3.59 µM,–,Kd [1]: 2.14 µM; binding result [4]: binds
"human BOLA3 (residues 25-107) with N-terminal His-tag (natural protein, UniProt Q53S33 25-107, looked up, Labelled with NT-647 dye in MST; source: E. coli BL21 (DE3), pET-Duet1, purified (HisTrap HP, Superdex 200 gel filtration)) MFATQTEGELRVTQILKEKFPRATAIKVTDISGGCGAMYEIKIESEEFKEKRTVQQHQMVNQALKEEIKEMHGLRIFTSVPKR",~3 µM,3.57 µM,–,Kd [5]: 0.8 µM
"human BOLA1 (residues 21-137), NMR construct (natural protein, UniProt Q9Y3E2 21-137, looked up, human BOLA1, residues 21-137, construct for NMR; 15N- or 13C,15N-labelled where observed by NMR; His-tag cleaved by tobacco etch virus protease; also called 15N-labeled BOLA1; source: E. coli BL21(DE3)GOLD, pETG20A vector, purified; not shown: His-tag, N-terminal, cleaved) QGSAGSGAIGPVEAAIRTKLEEALSPEVLELRNESGGHAVPPGSETHFRVAVVSSRFEGLSPLQRHRLVHAALAEELGGPVHALAIQARTPAQWRENSQLDTSPPCLGGNKKTLGTP",–,–,1,–
B1,–,–,–,stoichiometry N [7]: 2
"human BOLA3 (residues 27-107), NMR construct (natural protein, UniProt Q53S33 27-107, looked up, human BOLA3, residues 27-107, construct for NMR; 15N- or 13C,15N-labelled where observed by NMR; His-tag cleaved by tobacco etch virus protease; also called 15N-labeled BOLA3; source: E. coli BL21(DE3)GOLD, pET15 vector, purified; not shown: His-tag, N-terminal, cleaved) ATQTEGELRVTQILKEKFPRATAIKVTDISGGCGAMYEIKIESEEFKEKRTVQQHQMVNQALKEEIKEMHGLRIFTSVPKR",–,–,1,–
